Measurements: patent US20210139548A1 (published 2021)
*1 amine or outer side, *2 acyl side, *3 side chain or, on linkers, in order; H or OH if unused. Side-chain parts run from the residue outwards. The star is where a group is joined. C18 diacid = O=C(O)CCCCCCCCCCCCCCCCC(=O)*; γGlu = O=C(O)[C@H](CCC(=O)[*:2])N[*:1]; Isovaleryl = CC(C)CC(=O)*; AEEA = NCCOCCOCC(=O)O

T1: human neuropeptide Y2 receptor (human, UniProt P49146 1-381)
T1 construct: whole, on cells; also called hNPY2 receptor; hNPY2-R
T1 sequence (looked up): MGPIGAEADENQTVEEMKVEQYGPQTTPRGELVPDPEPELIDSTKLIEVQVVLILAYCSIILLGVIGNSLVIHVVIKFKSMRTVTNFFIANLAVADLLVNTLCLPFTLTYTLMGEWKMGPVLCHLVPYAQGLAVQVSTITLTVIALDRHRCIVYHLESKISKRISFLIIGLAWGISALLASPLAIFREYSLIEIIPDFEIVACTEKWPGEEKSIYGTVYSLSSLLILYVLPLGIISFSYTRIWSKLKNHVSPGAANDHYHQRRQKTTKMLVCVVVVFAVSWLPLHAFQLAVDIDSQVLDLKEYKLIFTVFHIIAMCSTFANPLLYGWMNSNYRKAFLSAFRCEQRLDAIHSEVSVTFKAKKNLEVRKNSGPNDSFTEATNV


Target: T1, human neuropeptide Y2 receptor
Test: radioligand competition (125I-PYY(1-36)), hNPY2R membranes
Procedure, shortened: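 Commercial human Y2 receptor membranes (0.5 μg protein/well) were incubated with peptide for 2 h at room temperature in 50 mM HEPES, 5 mM MgCl₂, 1 mM CaCl₂, pH 7.4, with 0.2% ovalbumin. Bound radioligand was separated on PEI-soaked GF/C filters and counted by scintillation, and IC₅₀ came from nonlinear sigmoidal regression.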

Row | Binder | Ki
1 | Isovaleryl-APAK([AEEA-AEEA-γGlu-C18 diacid])PEADASPEELQRYYVELRHYYNWLTRQRY-NH2 (SMILES CC(C)CC(=O)N[C@@H](C)C(=O)N1CCC[C@H]1C(=O)N[C@@H](C)C(=O)N[C@@H](CCCCNC(=O)COCCOCCNC(=O)COCCOCCNC(=O)CC[C@H](NC(=O)CCCCCCCCCCCCCCCCC(=O)O)C(=O)O)C(=O)N1CCC[C@H]1C(=O)N[C@@H](CCC(=O)O)C(=O)N[C@@H](C)C(=O)N[C@@H](CC(=O)O)C(=O)N[C@@H](C)C(=O)N[C@@H](CO)C(=O)N1CCC[C@H]1C(=O)N[C@@H](CCC(=O)O)C(=O)N[C@@H](CCC(=O)O)C(=O)N[C@@H](CC(C)C)C(=O)N[C@@H](CCC(N)=O)C(=O)N[C@@H](CCCNC(=N)N)C(=O)N[C@@H](Cc1ccc(O)cc1)C(=O)N[C@@H](Cc1ccc(O)cc1)C(=O)N[C@H](C(=O)N[C@@H](CCC(=O)O)C(=O)N[C@@H](CC(C)C)C(=O)N[C@@H](CCCNC(=N)N)C(=O)N[C@@H](Cc1c[nH]cn1)C(=O)N[C@@H](Cc1ccc(O)cc1)C(=O)N[C@@H](Cc1ccc(O)cc1)C(=O)N[C@@H](CC(N)=O)C(=O)N[C@@H](Cc1c[nH]c2ccccc12)C(=O)N[C@@H](CC(C)C)C(=O)N[C@H](C(=O)N[C@@H](CCCNC(=N)N)C(=O)N[C@@H](CCC(N)=O)C(=O)N[C@@H](CCCNC(=N)N)C(=O)N[C@@H](Cc1ccc(O)cc1)C(N)=O)[C@@H](C)O)C(C)C) [Compound 197] | 0.87 nM
2 | Isovaleryl-APEK([AEEA-AEEA-γGlu-C18 diacid])PEEDAAPEELQKYYVSLRHYYNWLTRQRY-NH2 (SMILES CC(C)CC(=O)N[C@@H](C)C(=O)N1CCC[C@H]1C(=O)N[C@@H](CCC(=O)O)C(=O)N[C@@H](CCCCNC(=O)COCCOCCNC(=O)COCCOCCNC(=O)CC[C@H](NC(=O)CCCCCCCCCCCCCCCCC(=O)O)C(=O)O)C(=O)N1CCC[C@H]1C(=O)N[C@@H](CCC(=O)O)C(=O)N[C@@H](CCC(=O)O)C(=O)N[C@@H](CC(=O)O)C(=O)N[C@@H](C)C(=O)N[C@@H](C)C(=O)N1CCC[C@H]1C(=O)N[C@@H](CCC(=O)O)C(=O)N[C@@H](CCC(=O)O)C(=O)N[C@@H](CC(C)C)C(=O)N[C@@H](CCC(N)=O)C(=O)N[C@@H](CCCCN)C(=O)N[C@@H](Cc1ccc(O)cc1)C(=O)N[C@@H](Cc1ccc(O)cc1)C(=O)N[C@H](C(=O)N[C@@H](CO)C(=O)N[C@@H](CC(C)C)C(=O)N[C@@H](CCCNC(=N)N)C(=O)N[C@@H](Cc1c[nH]cn1)C(=O)N[C@@H](Cc1ccc(O)cc1)C(=O)N[C@@H](Cc1ccc(O)cc1)C(=O)N[C@@H](CC(N)=O)C(=O)N[C@@H](Cc1c[nH]c2ccccc12)C(=O)N[C@@H](CC(C)C)C(=O)N[C@H](C(=O)N[C@@H](CCCNC(=N)N)C(=O)N[C@@H](CCC(N)=O)C(=O)N[C@@H](CCCNC(=N)N)C(=O)N[C@@H](Cc1ccc(O)cc1)C(N)=O)[C@@H](C)O)C(C)C) [Compound 202] | 0.6 nM
3 | Isovaleryl-APEK([AEEA-AEEA-γGlu-C18 diacid])PEEEASPEEVQRYYVSLRHYYNWLTRQRY-NH2 (SMILES CC(C)CC(=O)N[C@@H](C)C(=O)N1CCC[C@H]1C(=O)N[C@@H](CCC(=O)O)C(=O)N[C@@H](CCCCNC(=O)COCCOCCNC(=O)COCCOCCNC(=O)CC[C@H](NC(=O)CCCCCCCCCCCCCCCCC(=O)O)C(=O)O)C(=O)N1CCC[C@H]1C(=O)N[C@@H](CCC(=O)O)C(=O)N[C@@H](CCC(=O)O)C(=O)N[C@@H](CCC(=O)O)C(=O)N[C@@H](C)C(=O)N[C@@H](CO)C(=O)N1CCC[C@H]1C(=O)N[C@@H](CCC(=O)O)C(=O)N[C@@H](CCC(=O)O)C(=O)N[C@H](C(=O)N[C@@H](CCC(N)=O)C(=O)N[C@@H](CCCNC(=N)N)C(=O)N[C@@H](Cc1ccc(O)cc1)C(=O)N[C@@H](Cc1ccc(O)cc1)C(=O)N[C@H](C(=O)N[C@@H](CO)C(=O)N[C@@H](CC(C)C)C(=O)N[C@@H](CCCNC(=N)N)C(=O)N[C@@H](Cc1c[nH]cn1)C(=O)N[C@@H](Cc1ccc(O)cc1)C(=O)N[C@@H](Cc1ccc(O)cc1)C(=O)N[C@@H](CC(N)=O)C(=O)N[C@@H](Cc1c[nH]c2ccccc12)C(=O)N[C@@H](CC(C)C)C(=O)N[C@H](C(=O)N[C@@H](CCCNC(=N)N)C(=O)N[C@@H](CCC(N)=O)C(=O)N[C@@H](CCCNC(=N)N)C(=O)N[C@@H](Cc1ccc(O)cc1)C(N)=O)[C@@H](C)O)C(C)C)C(C)C) [Compound 204] | 3.35 nM
4 | Isovaleryl-APEK([AEEA-AEEA-γGlu-C18 diacid])PEEDAEPEETQRYYVSLRHYYNWLTRQRY-NH2 (SMILES CC(C)CC(=O)N[C@@H](C)C(=O)N1CCC[C@H]1C(=O)N[C@@H](CCC(=O)O)C(=O)N[C@@H](CCCCNC(=O)COCCOCCNC(=O)COCCOCCNC(=O)CC[C@H](NC(=O)CCCCCCCCCCCCCCCCC(=O)O)C(=O)O)C(=O)N1CCC[C@H]1C(=O)N[C@@H](CCC(=O)O)C(=O)N[C@@H](CCC(=O)O)C(=O)N[C@@H](CC(=O)O)C(=O)N[C@@H](C)C(=O)N[C@@H](CCC(=O)O)C(=O)N1CCC[C@H]1C(=O)N[C@@H](CCC(=O)O)C(=O)N[C@@H](CCC(=O)O)C(=O)N[C@H](C(=O)N[C@@H](CCC(N)=O)C(=O)N[C@@H](CCCNC(=N)N)C(=O)N[C@@H](Cc1ccc(O)cc1)C(=O)N[C@@H](Cc1ccc(O)cc1)C(=O)N[C@H](C(=O)N[C@@H](CO)C(=O)N[C@@H](CC(C)C)C(=O)N[C@@H](CCCNC(=N)N)C(=O)N[C@@H](Cc1c[nH]cn1)C(=O)N[C@@H](Cc1ccc(O)cc1)C(=O)N[C@@H](Cc1ccc(O)cc1)C(=O)N[C@@H](CC(N)=O)C(=O)N[C@@H](Cc1c[nH]c2ccccc12)C(=O)N[C@@H](CC(C)C)C(=O)N[C@H](C(=O)N[C@@H](CCCNC(=N)N)C(=O)N[C@@H](CCC(N)=O)C(=O)N[C@@H](CCCNC(=N)N)C(=O)N[C@@H](Cc1ccc(O)cc1)C(N)=O)[C@@H](C)O)C(C)C)[C@@H](C)O) [Compound 199] | 5.69 nM

The next lines start with the values.

Row | Ki | Binder
5 | 1.07 nM | Isovaleryl-APAK([AEEA-AEEA-γGlu-C18 diacid])PEADAEPEELQRYYVSLRHYYNWLTRQRY-NH2 (SMILES CC(C)CC(=O)N[C@@H](C)C(=O)N1CCC[C@H]1C(=O)N[C@@H](C)C(=O)N[C@@H](CCCCNC(=O)COCCOCCNC(=O)COCCOCCNC(=O)CC[C@H](NC(=O)CCCCCCCCCCCCCCCCC(=O)O)C(=O)O)C(=O)N1CCC[C@H]1C(=O)N[C@@H](CCC(=O)O)C(=O)N[C@@H](C)C(=O)N[C@@H](CC(=O)O)C(=O)N[C@@H](C)C(=O)N[C@@H](CCC(=O)O)C(=O)N1CCC[C@H]1C(=O)N[C@@H](CCC(=O)O)C(=O)N[C@@H](CCC(=O)O)C(=O)N[C@@H](CC(C)C)C(=O)N[C@@H](CCC(N)=O)C(=O)N[C@@H](CCCNC(=N)N)C(=O)N[C@@H](Cc1ccc(O)cc1)C(=O)N[C@@H](Cc1ccc(O)cc1)C(=O)N[C@H](C(=O)N[C@@H](CO)C(=O)N[C@@H](CC(C)C)C(=O)N[C@@H](CCCNC(=N)N)C(=O)N[C@@H](Cc1c[nH]cn1)C(=O)N[C@@H](Cc1ccc(O)cc1)C(=O)N[C@@H](Cc1ccc(O)cc1)C(=O)N[C@@H](CC(N)=O)C(=O)N[C@@H](Cc1c[nH]c2ccccc12)C(=O)N[C@@H](CC(C)C)C(=O)N[C@H](C(=O)N[C@@H](CCCNC(=N)N)C(=O)N[C@@H](CCC(N)=O)C(=O)N[C@@H](CCCNC(=N)N)C(=O)N[C@@H](Cc1ccc(O)cc1)C(N)=O)[C@@H](C)O)C(C)C) [Compound 207]
6 | 1.9 nM | Isovaleryl-APEK([AEEA-AEEA-γGlu-C18 diacid])PEEEASPEELQKYYVSLRHYYNWLTRQRY-NH2 (SMILES CC(C)CC(=O)N[C@@H](C)C(=O)N1CCC[C@H]1C(=O)N[C@@H](CCC(=O)O)C(=O)N[C@@H](CCCCNC(=O)COCCOCCNC(=O)COCCOCCNC(=O)CC[C@H](NC(=O)CCCCCCCCCCCCCCCCC(=O)O)C(=O)O)C(=O)N1CCC[C@H]1C(=O)N[C@@H](CCC(=O)O)C(=O)N[C@@H](CCC(=O)O)C(=O)N[C@@H](CCC(=O)O)C(=O)N[C@@H](C)C(=O)N[C@@H](CO)C(=O)N1CCC[C@H]1C(=O)N[C@@H](CCC(=O)O)C(=O)N[C@@H](CCC(=O)O)C(=O)N[C@@H](CC(C)C)C(=O)N[C@@H](CCC(N)=O)C(=O)N[C@@H](CCCCN)C(=O)N[C@@H](Cc1ccc(O)cc1)C(=O)N[C@@H](Cc1ccc(O)cc1)C(=O)N[C@H](C(=O)N[C@@H](CO)C(=O)N[C@@H](CC(C)C)C(=O)N[C@@H](CCCNC(=N)N)C(=O)N[C@@H](Cc1c[nH]cn1)C(=O)N[C@@H](Cc1ccc(O)cc1)C(=O)N[C@@H](Cc1ccc(O)cc1)C(=O)N[C@@H](CC(N)=O)C(=O)N[C@@H](Cc1c[nH]c2ccccc12)C(=O)N[C@@H](CC(C)C)C(=O)N[C@H](C(=O)N[C@@H](CCCNC(=N)N)C(=O)N[C@@H](CCC(N)=O)C(=O)N[C@@H](CCCNC(=N)N)C(=O)N[C@@H](Cc1ccc(O)cc1)C(N)=O)[C@@H](C)O)C(C)C) [Compound 205]
